Measured values from patent US10227388B2, “Peptides and combination of peptides for use in immunotherapy against non-small cell lung cancer and other cancers” (immatics biotechnologies GmbH, priority 2015, dated 2019).

target: HLA-A*02:01 (Homo sapiens, UniProt P04439, D140Y/D185E/D98H/E176V/E277Q/G131W/G231S/I119V/I121R/I166T/I218V/L300P/L318F/N151K/N90K/P208A/P217A/Q86G/Q94H/R138H/R169H/T345S); experiment: MHC binding assay (UV-ligand exchange, ELISA, peptide exchange yield); conditions: binding of HLA-class I restricted peptides to HLA-A*02:01
Outline: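 Exchange yield was quantified as stabilized β2m-containing complex: monomers diluted 100-fold bound to streptavidin-coated wells, probed with HRP-conjugated anti-β2m, read at 450 nm after TMB. Complexes had been generated by UV cleavage of a photolabile ligand and replacement with the candidate peptide.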

Row | Substance | Peptide exchange (MHC class I binding score, peptide exchange yield)
1 | 362 (TLYGLSVLL; listed as Homo sapiens) [compound 362] | ″+++″ (≥50% = +++)
2 | 576 (ILLNNSGQIKL; listed as Homo sapiens) [compound 576] | ″++++″ (≥75% = ++++)
3 | 401 (ILLDDTGLAYI; listed as Homo sapiens) [compound 401] | ″+++″ (≥50% = +++)
4 | 96 (YIFTDNPAAV; listed as Homo sapiens) [compound 96] | ″+++″ (≥50% = +++)
5 | 62 (VLLDVSAGQLLM; listed as Homo sapiens) [compound 62] | ″++++″ (≥75% = ++++)
6 | 158 (KLFDVDEDGYI; listed as Homo sapiens) [compound 158] | ″+++″ (≥50% = +++)
7 | 432 (TLIEESAKV; listed as Homo sapiens) [compound 432] | ″++″ (≥20% = ++)
8 | 159 (GLVGNPLPSV; listed as Homo sapiens) [compound 159] | ″++++″ (≥75% = ++++)
9 | 25 (FLPDEPYIKV; listed as Homo sapiens) [compound 25] | ″+++″ (≥50% = +++)
10 | 235 (YLNDLHEVLL; listed as Homo sapiens) [compound 235] | ″++++″ (≥75% = ++++)
11 | 622 (RLLGEEVVRVLQA; listed as Homo sapiens) [compound 622] | ″+++″ (≥50% = +++)
12 | 349 (SLTEYLQNV; listed as Homo sapiens) [compound 349] | ″++++″ (≥75% = ++++)
13 | 462 (KLAKQPETV; listed as Homo sapiens) [compound 462] | ″+++″ (≥50% = +++)
14 | 22 (IMEENPGIFAV; listed as Homo sapiens) [compound 22] | ″+++″ (≥50% = +++)
15 | 117 (ILPDGEDFLAV; listed as Homo sapiens) [compound 117] | ″+++″ (≥50% = +++)
16 | 104 (STMEQNFLL; listed as Homo sapiens) [compound 104] | ″++++″ (≥75% = ++++)
17 | 605 (KLYEAVPQL; listed as Homo sapiens) [compound 605] | ″+++″ (≥50% = +++)
18 | 177 (YLLPEEYTSTL; listed as Homo sapiens) [compound 177] | ″++++″ (≥75% = ++++)
19 | 614 (LLLPDQPPYHL; listed as Homo sapiens) [compound 614] | ″+++″ (≥50% = +++)
20 | 490 (FLLQHVQEL; listed as Homo sapiens) [compound 490] | ″+++″ (≥50% = +++)
21 | 409 (LLDAMNYHL; listed as Homo sapiens) [compound 409] | ″++″ (≥20% = ++)
22 | 488 (FLAEDPKVTL; listed as Homo sapiens) [compound 488] | ″+++″ (≥50% = +++)

Row | Substance | Peptide exchange (MHC class I binding score, peptide exchange yield)
23 | 239 (AAFAGKLLSV; listed as Homo sapiens) [compound 239] | ″+++″ (≥50% = +++)
24 | 458 (SLIDKLYNI; listed as Homo sapiens) [compound 458] | ″++″ (≥20% = ++)
25 | 274 (SLLFSLFEA; listed as Homo sapiens) [compound 274] | ″++″ (≥20% = ++)
26 | 85 (KMSELRVTL; listed as Homo sapiens) [compound 85] | ″+++″ (≥50% = +++)
27 | 577 (VMFEDGVLMRL; listed as Homo sapiens) [compound 577] | ″+++″ (≥50% = +++)
28 | 165 (SLLDEIRAV; listed as Homo sapiens) [compound 165] | ″+++″ (≥50% = +++)
29 | 222 (NLIENVQRL; listed as Homo sapiens) [compound 222] | ″++″ (≥20% = ++)
30 | 325 (FIMPATVADATAV; listed as Homo sapiens) [compound 325] | ″+++″ (≥50% = +++)
31 | 527 (FLLEPGNLEV; listed as Homo sapiens) [compound 527] | ″++++″ (≥75% = ++++)
32 | 592 (RLLSAAENFL; listed as Homo sapiens) [compound 592] | ″+++″ (≥50% = +++)
33 | 389 (LLADVTHLL; listed as Homo sapiens) [compound 389] | ″++″ (≥20% = ++)
34 | 552 (GLLDLPFRVGV; listed as Homo sapiens) [compound 552] | ″++++″ (≥75% = ++++)
35 | 307 (ALPVSLPQI; listed as Homo sapiens) [compound 307] | ″+++″ (≥50% = +++)
36 | 269 (RVLEVGALQAV; listed as Homo sapiens) [compound 269] | ″++″ (≥20% = ++)
37 | 200 (LLFGSVQEV; listed as Homo sapiens) [compound 200] | ″+++″ (≥50% = +++)
38 | 620 (KLLNKIYEA; listed as Homo sapiens) [compound 620] | ″++++″ (≥75% = ++++)
39 | 32 (KLDDLTQDLTV; listed as Homo sapiens) [compound 32] | ″++″ (≥20% = ++)
40 | 566 (VIADGGIQNV; listed as Homo sapiens) [compound 566] | ″++″ (≥20% = ++)
41 | 528 (SVAEGRALMSV; listed as Homo sapiens) [compound 528] | ″+++″ (≥50% = +++)
42 | 97 (SLINGSFLV; listed as Homo sapiens) [compound 97] | ″+++″ (≥50% = +++)
43 | 342 (HIYDKVMTV; listed as Homo sapiens) [compound 342] | ″+++″ (≥50% = +++)
44 | 51 (LLPDLEFYV; listed as Homo sapiens) [compound 51] | ″++++″ (≥75% = ++++)

Row | Substance | Peptide exchange (MHC class I binding score, peptide exchange yield)
45 | 469 (YLASDEITTV; listed as Homo sapiens) [compound 469] | ″+++″ (≥50% = +++)
46 | 588 (SLLPLSHLV; listed as Homo sapiens) [compound 588] | ″+++″ (≥50% = +++)
47 | 554 (LLMPSSEDLLL; listed as Homo sapiens) [compound 554] | ″+++″ (≥50% = +++)
48 | 12 (SLWPDPMEV; listed as Homo sapiens) [compound 12] | ″+++″ (≥50% = +++)
49 | 326 (FLPEALDFV; listed as Homo sapiens) [compound 326] | ″+++″ (≥50% = +++)
50 | 504 (GLSDGNPSL; listed as Homo sapiens) [compound 504] | ″++″ (≥20% = ++)
51 | 173 (LLDSASAGLYL; listed as Homo sapiens) [compound 173] | ″+++″ (≥50% = +++)
52 | 531 (YTLPIASSIRL; listed as Homo sapiens) [compound 531] | ″+++″ (≥50% = +++)
53 | 286 (YLFPGIPEL; listed as Homo sapiens) [compound 286] | ″+++″ (≥50% = +++)
54 | 245 (SMIDDLLGV; listed as Homo sapiens) [compound 245] | ″+++″ (≥50% = +++)
55 | 463 (SLVESHLSDQLTL; listed as Homo sapiens) [compound 463] | ″+++″ (≥50% = +++)
56 | 313 (VLFDDELLMV; listed as Homo sapiens) [compound 313] | ″+++″ (≥50% = +++)
57 | 501 (LLDPNVKSIFV; listed as Homo sapiens) [compound 501] | ″+++″ (≥50% = +++)
58 | 327 (GLAPFTEGISFV; listed as Homo sapiens) [compound 327] | ″+++″ (≥50% = +++)
59 | 317 (SLAALVVHV; listed as Homo sapiens) [compound 317] | ″+++″ (≥50% = +++)
60 | 617 (ALMYESEKVGV; listed as Homo sapiens) [compound 617] | ″+++″ (≥50% = +++)
61 | 94 (YLIDIKTIAI; listed as Homo sapiens) [compound 94] | ″++″ (≥20% = ++)
62 | 444 (GLLRDEALAEV; listed as Homo sapiens) [compound 444] | ″+++″ (≥50% = +++)
63 | 393 (GLLDTQTSQVLTA; listed as Homo sapiens) [compound 393] | ″++″ (≥20% = ++)
64 | 46 (ILTEENIHL; listed as Homo sapiens) [compound 46] | ″+++″ (≥50% = +++)
65 | 441 (ALLENPKMEL; listed as Homo sapiens) [compound 441] | ″+++″ (≥50% = +++)
66 | 324 (FLYDEIEAEV; listed as Homo sapiens) [compound 324] | ″+++″ (≥50% = +++)
